Test results published in paper PMC9496550.

Target: full length human kynurenine 3-monooxygenase fused to the C-terminal fragment of CFP (flKMO-CC) (human) (UniProt O15229)
Experiment: split reporter (BiFC, NanoBiT); BiFC in live HEK293T cells 48 h after co-transfection, 37 °C, 5% CO2; CC + VN (KMO with HTT) or VN + VC (HTT with HTT) complementation; ScanR screening station (mean green intensity normalised by co-transfected RFP) or confocal microscopy

Sequence of UniProt O15229 (O15229 whole entry, the tested form may be a part): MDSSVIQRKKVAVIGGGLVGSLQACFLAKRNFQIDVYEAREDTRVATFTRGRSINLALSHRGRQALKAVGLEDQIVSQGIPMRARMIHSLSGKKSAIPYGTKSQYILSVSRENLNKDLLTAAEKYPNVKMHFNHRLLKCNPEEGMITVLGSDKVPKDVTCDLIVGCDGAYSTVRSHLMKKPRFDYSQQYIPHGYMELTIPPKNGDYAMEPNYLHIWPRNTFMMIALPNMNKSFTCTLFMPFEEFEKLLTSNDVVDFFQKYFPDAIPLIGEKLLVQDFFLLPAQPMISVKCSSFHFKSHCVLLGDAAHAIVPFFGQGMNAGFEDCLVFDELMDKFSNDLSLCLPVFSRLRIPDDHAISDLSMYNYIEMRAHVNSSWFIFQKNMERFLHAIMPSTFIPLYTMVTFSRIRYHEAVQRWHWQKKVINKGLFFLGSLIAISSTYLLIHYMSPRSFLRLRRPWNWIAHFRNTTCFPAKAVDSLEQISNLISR

reduction of the BiFC signal against flKMO-19Q: 50%
Substance: HTT exon 1 fragment with 97 glutamines fused to the N-terminal half of Venus (HTT97Q-VN) (domain or fragment)
